DDR (luminescence with drug / without drug) data for 1 substance are collected here from article PMC10588934.

The target in this assay is dopamine receptor D1 fused to LgBiT (UniProt P21728). Nature of the assay: split reporter.
Sequence of UniProt P21728 (P21728 whole entry, the tested form may be a part): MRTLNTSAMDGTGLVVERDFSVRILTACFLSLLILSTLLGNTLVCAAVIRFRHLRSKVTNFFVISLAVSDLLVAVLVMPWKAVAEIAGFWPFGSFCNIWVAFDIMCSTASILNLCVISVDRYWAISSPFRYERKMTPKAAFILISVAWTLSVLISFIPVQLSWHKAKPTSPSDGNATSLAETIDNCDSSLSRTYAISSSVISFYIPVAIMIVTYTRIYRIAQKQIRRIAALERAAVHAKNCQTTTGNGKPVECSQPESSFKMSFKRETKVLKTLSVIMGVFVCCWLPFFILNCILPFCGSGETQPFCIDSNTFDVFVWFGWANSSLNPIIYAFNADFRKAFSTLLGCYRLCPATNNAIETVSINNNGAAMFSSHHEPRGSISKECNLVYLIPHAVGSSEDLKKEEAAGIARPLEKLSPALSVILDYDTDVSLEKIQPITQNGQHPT

With SmBiT-miniGs (domain or fragment), the DDR (luminescence with drug / without drug) is 1.6.
